Test results reported in patent US20230065377A1.
Where “and” joins values, the source holds several entries; their conditions need not be identical. Equal entries are not always repeated. Where two headings read alike, the source gives them in different places.

Assays:
[1] = biological target: Eastern equine encephalitis virus (EEEV) strain FL93-939 (Eastern equine encephalitis virus, strain FL93-939)
[2] = biological target: Eastern equine encephalitis virus (EEEV) strain FL93-939 (Eastern equine encephalitis virus, strain FL93-939); remark: listed apart in the source
[3] = biological target: Recombinant EEEV E2 glycoprotein (E3E2) (strain V105; IBT Bioservices) (Eastern equine encephalitis virus, strain V105); experiment: ELISA, mAb on coated recombinant E2
[4] = biological target: Eastern equine encephalitis virus (EEEV) strain FL93-939 (Eastern equine encephalitis virus, strain FL93-939); remark: listed apart in the source

B1: EEEV-147 (antibody, V domains shown)
VH: QVQLVQSGAEVKKPGASVKVSCKASGYTFTNYGITWVRQAPGQGLEWMGWISAYNGNTDYAQKLQGRVTMTTDTSTSTAYMELGSLRSDDTAVYYCARELWFGDLGYWGQGTLVTVSS
VL: EIVLTQSPGTLSLSPGERATLSCRASQSVSRSSSSYLAWYQQKPGQAPRLLIYGASSRATGIPDRFSGSGSGTDFTLTISRLEPEDVAVYYCQQYGSSPQTFGQGTKLEIK
IC50, neutralization, CPE assay [1]: < 1 mg/L

B2: EEEV-33 (antibody, V domains shown)
VH: QVTLKESGPALVKPTQTLTLTCTFSGFSLSTSGMRVSWIRQPPGKALEWLARIDWDDDKFYSTSLKTRLTISKDTSKNQVVLRMTNMDPVDTATYYCARILPGYCSGGSCYYNYHFDYWGQGTLVTVSS
VL: SYVLTQPPSVSVAPGQTARITCGGNNIGSKSVHWYQQKPGQAPVLVVYHDSDRPSGIPERFSGSNSGNTATLTISRVEAGDEADYYCQVWDSSSDPYVFGTGTKVTVL
IC50, neutralization, PRNT [2]: < 0.037 nM | EC50 [3]: < 4 nM and < 1.2 µg/mL | IC50, neutralization, CPE assay [1]: < 0.01 mg/L

B3: EEEV-143 (antibody, V domains shown)
VH: QVQLVESGGGVVQPGRSLRLSCAASGFTFSNYGIHWVRQAPGKGLEWVAVISYDGRHKYIADPVKGRFTISRDNSKNMLYLQMNSLRTEDTAVYYCAKDTSGWYEFFDSWGQGIPVTVSS
VL: EIVMTQSPATLSVSPGERATLSCRASQSVATNVAWYQQKPGQAPRLLIYGASTRATGIPARFSGSGSGTEFTLTISSLQSEDFAVYYCQQCNDWLTFGQGTKVEIK
IC50, neutralization, PRNT [4]: 0.315 nM
